Laboratory results: the FLAb antibody collection (doi:10.7554/elife.23156)

B1: scFv; the commonest letter at each place (parent)
chain 1: EVKLDETGGGLVQPGRPMKLSCVASGFTFSDYWMNWVRQSPEKGLEWVAQIRNKPYNYETYYSDSVKGRFTISRDDSKSSVYLQMNNLRVEDMGIYYCTGSYYGMDYWGQGTSVTVS
chain 2: DVVMTQTPLSLPVSLGDQASISCRSSQSLVHSNGNTYLRWYLQKPGQSPKVLIYKVSNRFSGVPDRFSGSGSGTDFTLKISRVEAEDLGVYFCSQSTHVPWTFGGGTKLEIK

What was measured:
[1] = variants of: B1; assay: Kd (Tite-Seq); conditions: with fluorescein; format: scFv 4-4-20, heavy + light
[2] = variants of: B1; assay: yeast surface expression (ratio to wild type); higher = more expressed; conditions: format: scFv 4-4-20, heavy + light

Variant chain 1 EVKLDETGGGLVQPGRPMKLSCVASGFTFSDYWMNWVRQSPEKGLEWVAQIRNKPYNYETYYSDSVKGRFTISRDDSKSSVYLQMNNLRVEDMGIYYCTSSYHGMDYWGQGTSVTVS chain 2 DVVMTQTPLSLPVSLGDQASISCRSSQSLVHSNGNTYLRWYLQKPGQSPKVLIYKVSNRFSGVPDRFSGSGSGTDFTLKISRVEAEDLGVYFCSQSTHVPWTFGGGTKLEIK [chain 1 G100S Y103H] has a Kd [1] of 24.5 nM and a yeast surface expression [2] of 1.01.

chain 1 EVKLDETGGGLVQPGRPMKLSCVASGFTFSDYWMNWVRQSPEKGLEWVAQIRNKPYNYETYYSDSVKGRFTISRDDSKSSVYLQMNNLRVEDMGIYYCTGSHYGMDYWPQGTSVTVS chain 2 DVVMTQTPLSLPVSLGDQASISCRSSQSLVHSNGNTYLRWYLQKPGQSPKVLIYKVSNRFSGVPDRFSGSGSGTDFTLKISRVEAEDLGVYFCSQSTHVPWTFGGGTKLEIK [chain 1 Y102H G109P] gave a Kd [1] of at least 10000 nM and a yeast surface expression [2] of 0.281.

chain 1 EVKLDETGGGLVQPGRPMKLSCVASGFDFSDYWMNWGRQSPEKGLEWVAQIRNKPYNYETYYSDSVKGRFTISRDDSKSSVYLQMNNLRVEDMGIYYCTGSYYGMDYWGQGTSVTVS chain 2 DVVMTQTPLSLPVSLGDQASISCRSSQSLVHSNGNTYLRWYLQKPGQSPKVLIYKVSNRFSGVPDRFSGSGSGTDFTLKISRVEAEDLGVYFCSQSTHVPWTFGGGTKLEIK [chain 1 T28D V37G] showed a Kd [1] of 205 nM and a yeast surface expression [2] of 1.16.

In the case of chain 1 EVKLDETGGGLVQPGRPMKLSCVASGFTVSDSWMNWVRQSPEKGLEWVAQIRNKPYNYETYYSDSVKGRFTISRDDSKSSVYLQMNNLRVEDMGIYYCTGSYYGMDYWGQGTSVTVS chain 2 DVVMTQTPLSLPVSLGDQASISCRSSQSLVHSNGNTYLRWYLQKPGQSPKVLIYKVSNRFSGVPDRFSGSGSGTDFTLKISRVEAEDLGVYFCSQSTHVPWTFGGGTKLEIK [chain 1 F29V Y32S], the Kd [1] is reported as 8130 nM and the yeast surface expression [2] is reported as 0.999.

chain 1 EVKLDETGGGLVQPGRPMKLSCVASGFTFSDYWMNWVRQSPEKGLEWVAQIRNKPYNYETYYSDSVKGRFTISRDDSKSSVYLQMNNLRVEDMGIYYCTGSYQGMDYWGQGTSVTVS chain 2 DVVMTQTPLSLPVSLGDQASISCRSSQSLVHSNGNTYLRWYLQKPGQSPKVLIYKVSNRFSGVPDRFSGSGSGTDFTLKISRVEAEDLGVYFCSQSTHVPWTFGGGTKLEIK [chain 1 Y103Q] gave a Kd [1] of 19.9 nM and a yeast surface expression [2] of 1.33.

In the case of chain 1 EVKLDETGGGLVQPGRPMKLSCVASGFTFSDYWMNWVRQSPEKGLEWVAQIRNKPYNYETYYSDSVKGRFTISRDDSKSSVYLQMNNLRVEDMGIYYCTGSYYGMDYWWQGTSVTVS chain 2 DVVMTQTPLSLPVSLGDQASISCRSSQSLVHSNGNTYLRWYLQKPGQSPKVLIYKVSNRFSGVPDRFSGSGSGTDFTLKISRVEAEDLGVYFCSQSTHVPWTFGGGTKLEIK [chain 1 G109W], the Kd [1] is reported as at least 10000 nM and the yeast surface expression [2] is reported as 0.217.
